From patent US20170157165

Target: FGF2 (Homo sapiens) (UniProt P09038)
Assay: cell_activity
Conditions: 5' C6; 3' idT; negative control; HUVEC proliferation, FGF2 0.58 nM

Sequence of FGF2 (Homo sapiens) (P09038 135-288): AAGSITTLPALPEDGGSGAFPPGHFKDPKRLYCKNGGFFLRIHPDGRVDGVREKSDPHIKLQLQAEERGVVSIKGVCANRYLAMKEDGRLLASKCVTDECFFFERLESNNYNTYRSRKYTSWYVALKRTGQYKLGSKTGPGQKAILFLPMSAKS

negative control RNA (Macugen sequence without PEG)
IC50: > 400 nM
